From patent US20140359899A1 come the findings set out here.

The data set deals with T1, OC[C@H]1O[C@@](CO)(O[C@H]2O[C@H](CO)[C@@H](O)[C@H](O)[C@H]2O)[C@@H](O)[C@@H]1O.
T1 construct: Primers for the full length ORF of AtSWEET11 (AtSWT11FattB1 and AtSWT11attB2) or AtSWEET12; expressed in transfected cells; host or cells: Xenopus oocytes injected with capped cRNA from pOO2-GW
Kind of data set: Oocyte uptake assay: [14C]-sucrose uptake in Xenopus oocytes expressing AtSWEET12. Type of data set: cell-based, Arabidopsis. To be noted: other: Xenopus oocytes; FIG. 1F.

AtSWEET12 (Arabidopsis thaliana), sequence (chain, as listed by the source): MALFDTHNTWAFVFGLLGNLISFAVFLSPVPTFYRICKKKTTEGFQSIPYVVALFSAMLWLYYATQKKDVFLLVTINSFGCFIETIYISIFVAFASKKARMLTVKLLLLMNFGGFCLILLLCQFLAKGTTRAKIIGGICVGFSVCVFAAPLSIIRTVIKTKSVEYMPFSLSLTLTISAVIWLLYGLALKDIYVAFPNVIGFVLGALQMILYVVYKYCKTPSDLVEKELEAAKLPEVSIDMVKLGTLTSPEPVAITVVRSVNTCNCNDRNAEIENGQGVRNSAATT

With AtSWEET12 (Arabidopsis thaliana), the Km is 70 mM.

For orientation: Km means the concentration of substrate that gives half-maximal velocity.
